Assay results reported in the Human Domainome abundance scans (Beltran et al. 2025).

B1: Ankyrin repeat and SAM domain-containing protein 6, residues 774 to 836; numbered along this chain, Q68DC2 (parent)
chain: DEDELTGILKKLSLEKYQPIFEEQEVDMEAFLTLTDGDLKELGIKTDGSRQQILAAISELNAG

Variants of: B1
Assay: abundance fitness (aPCA) (normalised: wild type 0, dead -1); higher = more abundant; growth selection in yeast, the domain comes from the species named
Conditions: Homo sapiens

Abundance fitness of substitutions, site by site:
G37: F -0.051
V26: D -0.821; H -0.74; Y -0.327; E -0.532; A -0.542; M -0.024; W -0.405; T -0.479; C -0.353; S -0.649; N -0.664; I -0.056; L -0.145; F -0.177; R -0.588; Q -0.589; G -0.539; K -0.425
T35: W -0.879; I -0.695; C -0.363; M -0.65; V -0.687; Q -0.026; S 0.037; E -0.067; R -0.057; A -0.377; F -0.779; H -0.302; L -0.932; N -0.078; D 0.037; G -0.199
G43: S -0.477; L -0.655; M -0.611; P -0.683; H -0.556; K -0.326; R -0.616; D -0.199; Q -0.608; I -1.07; T -0.675; C -0.742
E25: A 0.023; P -0.653; S -0.08; F -0.166; Q -0.204; C -0.073; I -0.281; M -0.038; T -0.412; W -0.449; L -0.293; N 0.006; H -0.048; R -0.147; D -0.159; K 0.301; Y -0.262; V -0.21; G -0.023
Q24: G -0.128; R -0.096; H -0.261; K -0.042; S -0.033; V -0.442; A -0.04; M -0.165; Y -0.112; D -0.369; P -0.925; I -0.47; F -0.25; W -0.458; T -0.257
L39: G -0.699; V -0.57; E -0.625; D -0.499; N -0.514; M -0.437; Q -0.605; A -0.59; H -0.751; T -0.667; S -0.683; P -0.747; C -0.662; W -1; K -0.912; Y -0.673; F -0.616; R -0.599
M28: N -0.315; Y -0.106; H -0.218; G -0.213; D -0.466; T 0.007; A -0.055; R -0.159; S -0.094; K -0.025; L -0.155; E -0.437; Q -0.29; C -0.319; V -0.219; F -0.132; I -0.202; P -0.168
D27: A -0.47; R -0.215; V -0.988; H -0.282; Q -0.44; W -0.857; I -0.827; K -0.212; C -0.376; E -0.294; L -0.895; S -0.075; P -0.483; F -1.25; T 0.001; Y -0.729
E23: L -0.419; C -0.409; R -0.06; Q -0.17; K -0.085; T -0.231; Y -0.543; P -0.95; V -0.593; H -0.429; S -0.168; G -0.229; I -0.317; A -0.062; N -0.165; M -0.318; D -0.155
A30: E -0.073; Y -0.218; M -0.075; D -0.273; L -0.089; S -0.015; T -0.125; F -0.246; H 0.037; I -0.164; N -0.049; C -0.02; W -0.464; R 0.096; V -0.093; P -0.784; K 0.001
